Measured values taken from US20100190701A1 (INDIANA UNIVERSITY RESEARCH AND TECHNOLOGY, published 2010).
Bridge positions count the residues as written; N and C are the ends. Square brackets hold non-standard residues; d marks the D form. Ends that are not written are not given here. Nle = CCCC[C@H](N)C(=O)O; Orn = NCCC[C@H](N)C(=O)O; PEG = not defined here; Aib = CC(C)(N)C(=O)O

biological target: T1, GLP-1 receptor (UniProt P43220 24-463, limits assumed); test: cell-based or functional assay

| cAMP Induction, Percent Potency Relative to Native Ligand [%] | Binder |
| --- | --- |
| 20.6 | HS[Nle]GTFTSDYSKYLDERRAQDFVQWLMNT-NH2 [NLeu3, E16 Gluc-NH2] |
| 0.1 | HS[Orn]GTFTSDYSKYLDERRAQDFVQWLMNT-NH2 [Orn3, E16 Gluc-NH2] |

biological target: T1, GLP-1 receptor; test: cell-based or functional assay; remark: another data set of the same source

| cAMP Induction, Percent Potency Relative to Native Ligand [%] | Binder |
| --- | --- |
| 9.2 | HSQGTFTSDYSKYLEERRAQDFVQWLMNT-NH2 [E15, E16 Gluc-NH2] |

biological target: T2, glucagon receptor (UniProt P47871 26-477, limits assumed); test: cell-based or functional assay
T2 sequence (P47871 26-477 limits assumed): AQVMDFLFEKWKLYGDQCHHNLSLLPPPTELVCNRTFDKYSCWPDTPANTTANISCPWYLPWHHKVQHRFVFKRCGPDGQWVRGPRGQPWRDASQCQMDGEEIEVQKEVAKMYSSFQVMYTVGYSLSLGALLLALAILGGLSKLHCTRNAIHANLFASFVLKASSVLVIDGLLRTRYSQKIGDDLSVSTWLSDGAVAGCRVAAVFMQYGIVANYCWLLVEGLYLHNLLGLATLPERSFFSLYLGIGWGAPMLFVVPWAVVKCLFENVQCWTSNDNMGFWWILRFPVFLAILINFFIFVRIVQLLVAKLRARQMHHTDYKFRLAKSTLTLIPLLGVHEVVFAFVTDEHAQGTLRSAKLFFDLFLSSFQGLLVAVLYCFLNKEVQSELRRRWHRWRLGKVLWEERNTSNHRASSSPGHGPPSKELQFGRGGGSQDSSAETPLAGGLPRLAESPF

| Binder | EC50 [nM] |
| --- | --- |
| HSQGTFTSDYSKYLDSRRAQDFVQWLMNTGPSSGAPPPS (C-terminal amide) [Glucagon-Cex] | 0.14 |
| HSQGTFTSDYSKYLDSRRAQDFVQWLMDGGPSSGAPPPS-NH2 [-MDGG30 PSSGAPPPS (SEQ ID NO: 525)] | 0.12 |

Results, then the binder that gave them:

| EC50 [nM] | Binder |
| --- | --- |
| 1.16 | HSQGTFTSDYSKYLDSRRAQDFVQWLVKGGPSSGAPPPS-NH2 [-VKGG30 PSSGAPPPS (SEQ ID NO: 524)] |
| 0.61 | HSQGTFTSDYSKYLDSRRAQDFVQWLMKGGPSSGAPPPS-NH2 [-MKGG30 PSSGAPPPS (SEQ ID NO: 523)] |

biological target: T1, GLP-1 receptor; test: cell-based or functional assay; remark: another data set of the same source

| Binder | EC50 [nM] |
| --- | --- |
| HSQGTFTSDYSKYLDSRRAQDFVQWLMDGGPSSGAPPPS-NH2 [-MDGG30 PSSGAPPPS (SEQ ID NO: 525)] | 0.13 |
| HAEGTFTSDVSSYLEGQAAKEFIAWLVKGG-NH2 [GLP-1-VKGG30 (SEQ ID NO: 527)] | 0.025 |

Other lines, results leading:

| EC50 [nM] | Binder |
| --- | --- |
| 0.31 | HSQGTFTSDYSKYLDSRRAQDFVQWLMNGGPSSGAPPPS-NH2 [-MNGG30 PSSGAPPPS (SEQ ID NO: 522)] |
| 0.21 | HSQGTFTSDYSKYLDSRRAQDFVQWLVKGGPSSGAPPPS-NH2 [-VKGG30 PSSGAPPPS (SEQ ID NO: 524)] |
| 0.02 | HSQGTFTSDYSKYLDERRAKDFVQWLMDGGPSSGAPPPS-NH2 [E16K20-MDGG30 PSSGAPPPS (SEQ ID NO: 526)] |
| 0.8 | HSQGTFTSDYSKYLDSRRAQDFVQWLMKGGPSSGAPPPS-NH2 [-MKGG30 PSSGAPPPS (SEQ ID NO: 523)] |

biological target: T2, glucagon receptor; test: cell-based or functional assay; remark: another data set of the same source

| % Potency Relative to Native [%] | Binder |
| --- | --- |
| 114 | H[Aib]QGTFTSDYSKYLDEQAAKEFICWLMNT-NH2 (lactam 16-20) [Chimera AIB2, Cys24 Lactam (SEQ ID NO: 504), parent w/o PEG] |
| 2.6 | H[Aib]QGTFTSDYSKYLDEQAAKEFIC(PEG)WLMNT-NH2 (not fully specified; reading uncertain) [Chimera AIB2, Cys24 (SEQ ID NO: 486), parent w/PEG] |
| 9.2 | H[Aib]QGTFTSDYSKYLDEQAAKEFIC(PEG)WLMNT-NH2 (lactam 16-20; not fully specified; reading uncertain) [Chimera AIB2, Cys24 Lactam (SEQ ID NO: 504), parent w/PEG] |
| 15.4 | H[Aib]QGTFTSDYSKYLDEQAAKEFICWLMNT-NH2 [Chimera AIB2, Cys24 (SEQ ID NO: 486), parent w/o PEG] |

biological target: T1, GLP-1 receptor; test: cell-based or functional assay; remark: another data set of the same source

| % Potency Relative to Native [%] | Binder |
| --- | --- |
| 230 | H[Aib]QGTFTSDYSKYLDEQAAKEFICWLMNT-NH2 (lactam 16-20) [Chimera AIB2, Cys24 Lactam (SEQ ID NO: 504), parent w/o PEG] |
| 82.5 | H[Aib]QGTFTSDYSKYLDEQAAKEFIC(PEG)WLMNT-NH2 (not fully specified; reading uncertain) [Chimera AIB2, Cys24 (SEQ ID NO: 486), parent w/PEG] |
| 38 | H[Aib]QGTFTSDYSKYLDEQAAKEFIC(PEG)WLMNT-NH2 (lactam 16-20; not fully specified; reading uncertain) [Chimera AIB2, Cys24 Lactam (SEQ ID NO: 504), parent w/PEG] |
| 161 | H[Aib]QGTFTSDYSKYLDEQAAKEFICWLMNT-NH2 [Chimera AIB2, Cys24 (SEQ ID NO: 486), parent w/o PEG] |
